The chains are these.
T1: MET6-Biotin peptide (Candida albicans, not fully specified; C-terminal K-Biotin (PRIGGQRELKKITEPGGSGGSGK-Biotin))
T1 construct: also called btn-Met6 peptide; MFT6-Biotin
T1 peptide: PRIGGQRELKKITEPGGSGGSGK

T2: Fba-Biotin peptide (Candida albicans, not fully specified; C-terminal K-Biotin (YGKDVKDLFDYAQEGGSGGSGK-Biotin))
T2 construct: also called btn-Fba peptide
T2 peptide: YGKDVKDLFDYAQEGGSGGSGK

T3: full-length His-tagged recombinant Met6 protein from C. albicans (Candida albicans, UniProt P82610 2-767)
T3 construct: mature; also called His-Met6; whole length recombinant MET6; not shown: six-histidine (6-His) amino terminal tag from vector pRSET A
T3 sequence (looked up): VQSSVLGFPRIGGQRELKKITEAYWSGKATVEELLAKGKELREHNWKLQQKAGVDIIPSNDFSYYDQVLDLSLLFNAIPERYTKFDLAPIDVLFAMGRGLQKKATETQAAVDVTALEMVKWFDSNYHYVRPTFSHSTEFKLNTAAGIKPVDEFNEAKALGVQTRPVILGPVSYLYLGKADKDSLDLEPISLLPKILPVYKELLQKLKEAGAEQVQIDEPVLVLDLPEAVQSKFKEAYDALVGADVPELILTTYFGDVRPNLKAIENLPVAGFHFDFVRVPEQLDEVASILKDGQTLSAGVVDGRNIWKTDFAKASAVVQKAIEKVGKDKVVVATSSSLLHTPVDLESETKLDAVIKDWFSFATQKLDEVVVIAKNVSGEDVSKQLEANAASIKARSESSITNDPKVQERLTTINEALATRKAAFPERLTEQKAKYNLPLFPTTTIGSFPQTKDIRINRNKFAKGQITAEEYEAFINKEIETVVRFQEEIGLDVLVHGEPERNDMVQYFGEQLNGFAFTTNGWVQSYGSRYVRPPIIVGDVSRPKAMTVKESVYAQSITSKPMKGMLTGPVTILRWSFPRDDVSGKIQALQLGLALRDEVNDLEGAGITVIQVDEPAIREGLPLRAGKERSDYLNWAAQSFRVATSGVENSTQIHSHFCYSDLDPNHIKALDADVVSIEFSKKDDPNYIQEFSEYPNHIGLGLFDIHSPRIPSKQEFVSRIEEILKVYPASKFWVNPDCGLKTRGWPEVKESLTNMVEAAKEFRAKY

T4: full-length His-tagged recombinant Fba protein from C. albicans (Candida albicans, UniProt Q9URB4 2-359)
T4 construct: mature; also called His-Fba; whole length recombinant Fba (C. albicans); not shown: six-histidine (6-His) amino terminal tag from vector pRSET A
T4 sequence (looked up): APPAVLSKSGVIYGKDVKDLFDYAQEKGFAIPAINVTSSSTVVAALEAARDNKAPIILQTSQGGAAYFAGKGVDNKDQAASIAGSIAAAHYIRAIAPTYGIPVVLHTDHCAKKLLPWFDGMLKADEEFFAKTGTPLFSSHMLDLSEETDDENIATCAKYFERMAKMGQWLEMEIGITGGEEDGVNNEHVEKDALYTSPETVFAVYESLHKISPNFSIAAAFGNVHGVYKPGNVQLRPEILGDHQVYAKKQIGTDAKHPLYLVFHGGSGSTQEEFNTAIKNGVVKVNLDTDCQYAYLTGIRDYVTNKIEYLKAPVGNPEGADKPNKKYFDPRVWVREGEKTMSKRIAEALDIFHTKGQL

B1: HuMAb 1.B10 (anti-Met6) (antibody, V domains shown)
VH: EVQLVQSGGGLVKPGGSLRLSCAASGFIFSNAWMNWVRQAPGKGLEWVGRIKRESDSGTTDYGAAVKGRFTISRDDSKYTLYLQMNSLKTDDTAVYYCTTGWADYWGQGTLVTVSS
VL: LIQPPSVSVSPGQTARITCSGDALPNKYAYWYQQKPGQAPSVVMFRDNERPSGIPERFSGSSSGTTVTLTISGVQAEDESDFYCQSTDSNGAWVFGGGTKLTVL
B2: HuMAb 1.11D (anti-Fba) (antibody, V domains shown)
VH: EVQLVQSGGGLVQPGGSLRLSCSASGFTFRTYAMSWVRQAPGKGLQWVSVISRSGDTTYHTDSVKGRFTISRDNSRNALYLQLDSLRAEDTALYYCAKTGNMAVGDRRTNYSYYYMDVWGKGTTVTVSS
VL: DIVMTQSPSTLSASVGDRVTITCRASQSIKYWLAWYQQKPGKAPKLLIYKASNLESGVPSRFSGSGSGTEFTLTISSLRPDDFATYYCQQYNSYPLTFGGGTVEIK
B3: MET6 peptide (synthetic, from methyltetrahydropteroyltriglutamate homocysteine methyltransferase) (peptide)
peptide: PRIGGQRELKKITE
notes: also called MEM
B4: HuMAb 1.10C (anti-MET6) (antibody, V domains shown)
VH: EVQLVESGGGLVKPGGSLRLSCKASGFNFTNSWMSWVRQAPGKGLEWLGRIKSESDGGATRYAAPVTGRFSISRDDSRDMLFLQMNSLTTDDTAMYYCTTNKVTTNYWGQGTLVTVSS
VL: DIVMTQSPVTLAVSLGERATINCKSSQSLLYSSDNENYLTWYQQKPGQPPKLLIYWASVRESGIPDRFIGSGSVTDFTLTINNVQAEDVAVYYCQQFRYTPLTFGQGTTLEIK
notes: also called 1.100
B5: HuMAb 6.11C (anti-Fba) (antibody, V domains shown)
VH: QVQLVQSGAEVKKPGASVQVSCRTSGYTFINYFMHWVRQAPGQGLEWMGIINPNGGKTRYAQKFQGRLTVTRDTSTNTVYVELSNLRYEDTGLYFCARDPEGEVGFDYWGQGTQVTVSS
VL: SHELTQPPSVSVSPGQTARITCSGDALSKQYAYWYQQKPGQAPVVVIYKDNERPSGIPERFSGSSSGTTVTLTITGVQAEDEADYYCQSTDTSRAYYVFGTGTKVTVL
B6: HuMAb 6.6K (anti-Met6) (antibody, V domains shown)
VH: QVQLVESGGGVVQPGRSLRLSCAASGFNFISYGMHWVRQAPGKGLEWVALISYDGSNKYYADSVKGRFTISRDNSKNTLYLQMNSLRAEDTAVYYCATEAYVETAMVPQYWGQGTLVTVSS
VL: SYELTQPPSVSVSPGQTARITCSGDALPKEYAYWYQQKSGQAPVVVIYEDSKRPSGIPERFSGSSSGTMATLTISGAQVEDEADYHCYSTDSSGNPVFGGGTKLTVL
B7: Fba peptide (synthetic, from fructose-bisphosphate aldolase) (peptide)
peptide: YGKDVKDLFDYAQE

Assay [1] deals with T1, MET6-Biotin peptide. The experiment in a line: BLI (BLITz), btn-Met6 peptide on streptavidin tip, IgG in solution.
Experimental: (§1) Binding experiments were performed using a FortèBio BLITz Bi-layer interferometer at 25° C. […] Loaded sensors were dipped into serial dilutions of the cognate IgG.
Assay [2] addresses T2, Fba-Biotin peptide. The assay can be described thus: bio-layer interferometry (Octet), Fba-btn at 10 ng/ml loaded on streptavidin sensors, kinetic 1:1 fit; column head kdis(1/s). In general terms: BLI is a label-free optical method that tracks binding on a fibre tip over time.
Assay [3] concerns the target T2, Fba-Biotin peptide. The experiment in a line: bio-layer interferometry (Octet), Fba-btn at 10 ng/ml loaded on streptavidin sensors, kinetic 1:1 fit.
Assay [4] addresses T2, Fba-Biotin peptide. The experiment in a line: bio-layer interferometry (Octet), steady state analysis, Fba-btn on streptavidin sensors.
Assay [5] has as its target T2, Fba-Biotin peptide. The assay can be described thus: BLI (BLITz), btn-Fba peptide on streptavidin tip, IgG in solution.
Experimental: as §1
Assay [6] deals with T2, Fba-Biotin peptide. The experiment in a line: BLI (Octet HTX), steady-state analysis, biotinylated peptide on streptavidin sensor, IgG in solution; steady-state measurement (FIG. 5).
In assay [7] the target is T2, Fba-Biotin peptide. The assay can be described thus: BLI (Octet HTX), kinetic 1:1 fit, biotinylated peptide on streptavidin sensor, IgG in solution; kinetic measurement (FIG. 4).
The target in the assay “HuMAb 1.10C (anti-MET6)” is B4. The assay can be described thus: competition ELISA: 1.10C mixed with free MET6 peptide and added to MET6 peptide-coated wells; the competitor is the coated MET6 peptide.
In assay [8] the target is T3, full-length His-tagged recombinant Met6 …. The experiment in a line: bio-layer interferometry (BLITz), His-Met6 (C. albicans) from bacterial supernatant loaded on an anti-penta-His sensor, antibody in the association step.
Experimental: Before beginning, an Anti-Penta-His sensor (HisK sensor; FortèBio) was hydrated in Kinetics Buffer [PBS+0.1% BSA+0.02% Tween20]. […] A secondary baseline step was performed using Kinetics Buffer. Then an association step was performed with the loaded tip dipped into a solution containing purified. […] Finally, the tip was transitioned back to Kinetics Buffer for a dissociation step.
Assay [9] has as its target B7. The assay can be described thus: ELISA on peptide-coated wells, HRP goat anti-human IgG, absorbance at 450 nm.
Assay [10] deals with B3. The assay is described as above.
Assay [11] concerns the target T1, MET6-Biotin peptide. The experiment in a line: bio-layer interferometry (Octet), met6-btn loaded on streptavidin sensors, kinetic 1:1 fit.
The target in assay [12] is T1, MET6-Biotin peptide. The experiment in a line: bio-layer interferometry (Octet), steady state analysis, met6-btn on streptavidin sensors.
Assay [13] deals with T4, full-length His-tagged recombinant Fba …. The experiment in a line: bio-layer interferometry (BLITz), His-Fba (C. albicans) loaded on an anti-penta-His sensor, antibody in the association step.
The target of assay [14] is T1, MET6-Biotin peptide. The experiment in a line: bio-layer interferometry (Octet), met6-btn loaded on streptavidin sensors, kinetic 1:1 fit; column head kdis(1/s).
For assay [15], the target named is T1, MET6-Biotin peptide. The experiment in a line: BLI (Octet HTX), steady-state analysis, biotinylated peptide on streptavidin sensor, IgG in solution; steady-state measurement (FIG. 5).
Assay [16] has as its target T1, MET6-Biotin peptide. The experiment in a line: BLI (BLITz), btn-Met6 peptide on streptavidin tip, IgG in solution; BLITz run of Dec. 3, 2018.
The target of assay [17] is T1, MET6-Biotin peptide. The experiment in a line: BLI (Octet HTX), kinetic 1:1 fit, biotinylated peptide on streptavidin sensor, IgG in solution; kinetic measurement (FIG. 4).
The assay “HuMAb 1.11D (anti-Fba)” deals with B2. The assay can be described thus: competition ELISA: 1.11D mixed with free Fba peptide and added to Fba peptide-coated wells; the competitor is the coated Fba peptide. On the technique in general: An ELISA detects its analyte on a solid surface through an enzyme-linked reagent.

The Kd is a measure of binding affinity in units of concentration. The term koff denotes a measure of how fast the partners let go of each other. The low end stands for slow dissociation, the high end for fast dissociation. The term kon denotes a measure of how fast the partners come together. A lower kon goes with slower complex formation. Consider B1, for which, in the assay with MET6-Biotin peptide [1], the Kd was 31 nM, the off-rate constant (koff) is 0.0064 s⁻¹ and the kon was determined as 210000 M⁻¹ s⁻¹.
For B2, the koff with Fba-Biotin peptide [2] came to 0.00646 s⁻¹; with Fba-Biotin peptide [5], 0.00073 s⁻¹. The Kd is 58.5 nM with Fba-Biotin peptide [3]; 77 nM in the assay with Fba-Biotin peptide [4]; 19.8 nM with Fba-Biotin peptide [5]; around 77 nM with Fba-Biotin peptide [6]; around 58 nM with Fba-Biotin peptide [7]. For the same molecule, the on-rate constant (kon) with Fba-Biotin peptide [3] was determined as 111000 M⁻¹ s⁻¹; in the assay with Fba-Biotin peptide [5] it was 38000 M⁻¹ s⁻¹.
Regarding B3, the “IC50 (read off the curve)” value with HuMAb 1.10C (anti-MET6) is around 2 µg/mL.
For B4, the binding result in [8] is “binds”; in assay [9] it was “no binding”; in assay [10], “binds”; in assay [13] it was “no binding”. Moreover, the off-rate (koff) with MET6-Biotin peptide [1] came to 0.0055 s⁻¹; with MET6-Biotin peptide [14], 0.0124 s⁻¹. Moreover, the kon turned out to be 31000 M⁻¹ s⁻¹ in the assay with MET6-Biotin peptide [1] and 69500 M⁻¹ s⁻¹ with MET6-Biotin peptide [11]. The dissociation constant (Kd) with MET6-Biotin peptide [11] is 179 nM; in the assay with MET6-Biotin peptide [12] it was 310 nM; with MET6-Biotin peptide [15], around 310 nM; in the assay with MET6-Biotin peptide [16], 180 nM; with MET6-Biotin peptide [17], around 180 nM.
Consider B5, for which, in the assay with Fba-Biotin peptide [5], the Kd came to 120 nM, the dissociation rate constant (koff) is 0.06 s⁻¹ and the kon was determined as 490000 M⁻¹ s⁻¹.
For the molecule B6, in the assay with MET6-Biotin peptide [1], the Kd amounted to 160 nM, the off-rate (koff) is 0.012 s⁻¹ and the kon worked out at 75000 M⁻¹ s⁻¹.
In the case of B7, the “IC50 (read off the curve)” value with HuMAb 1.11D (anti-Fba) is around 4 µg/mL.

The values are drawn from US20220280618A1 (ADMINISTRATORS OF THE TULANE EDUCATIONAL FUND, published 2022).
